Source: patent US20100069815A1

How the values were obtained:
[1] = target: CD8 on CD8 positive cells in human peripheral blood (human) (UniProt P01732); test: specificity control, cells recovered after the column (not adsorbed); flow cytometry; mean ± SD of 3
[2] = target: CD2 on CD2 positive cells in human peripheral blood (human) (UniProt P06729); test: specificity control, cells recovered after the column (not adsorbed), with biotin block; flow cytometry; mean ± SD of 3
[3] = target: CD2 on CD2 positive cells in human peripheral blood (human) (UniProt P06729); test: specificity control, cells recovered after the column (not adsorbed), without biotin block; flow cytometry; mean ± SD of 3

Sequence of CD2 on CD2 positive cells in human peripheral blood (human) (P06729 25-351): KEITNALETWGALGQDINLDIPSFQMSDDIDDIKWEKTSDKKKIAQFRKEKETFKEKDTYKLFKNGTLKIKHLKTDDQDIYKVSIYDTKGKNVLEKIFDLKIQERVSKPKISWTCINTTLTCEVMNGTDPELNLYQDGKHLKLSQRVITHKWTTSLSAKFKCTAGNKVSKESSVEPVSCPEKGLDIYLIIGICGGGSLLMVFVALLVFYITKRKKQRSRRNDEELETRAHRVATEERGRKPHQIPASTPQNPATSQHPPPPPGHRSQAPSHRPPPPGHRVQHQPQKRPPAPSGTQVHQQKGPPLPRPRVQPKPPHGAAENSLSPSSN
Sequence of CD8 on CD8 positive cells in human peripheral blood (human) (P01732 22-235): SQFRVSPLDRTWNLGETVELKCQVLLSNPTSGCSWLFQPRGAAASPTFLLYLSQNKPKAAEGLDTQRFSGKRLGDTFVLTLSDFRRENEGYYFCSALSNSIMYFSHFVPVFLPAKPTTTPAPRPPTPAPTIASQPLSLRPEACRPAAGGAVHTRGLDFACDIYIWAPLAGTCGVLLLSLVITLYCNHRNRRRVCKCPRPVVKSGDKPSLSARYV

| Substance | CD8 positive cell recovery rate (%) [1] [%] | CD2 positive cell recovery rate (%) [2] [%] | CD2 positive cell recovery rate (%) [3] [%] |
| --- | --- | --- | --- |
| Leu3a scFv-Normal | 78.9 |  |  |
| 4G7 scFv-SA |  | 78.7 | 76.4 |
